Assay results published in patent US7247611 (University of Pennsylvania, dated 2007).

Target: T1, single chain urokinase-type plasminogen activator (UniProt P00749 21-431, radiolabeled with 125I (iodobeads) in the binding assays)
T1 construct: scuPA alone, without peptide; also called scuPA; recombinant scuPA
Test: 125I-scuPA on LM-TK- cells with peptide (FIG. 1A); indirect read-out of the peptide acting on scuPA
Method: The cells were washed four times with binding buffer, solubilized in 0.1 N NaOH, and the cell extract was assessed for radioactivity. […] Assays were repeated at least three times, and data presented herein represent the mean and standard deviation.

B1: peptide EEIIMR (SEQ ID NO: 5) (peptide)
peptide: EEIIMR
notes: Synthetic variant of EEIIMD with Arg at the carboxyl terminus; also called control peptide EEIIMR
In the case of B1, the “scuPA-binding-promoting activity relative to peptide EEIIMD” value is reported as ~20%.
